Experimental data reported in paper PMC6599547 (Journal of molecular biology, 2019).

Target: T1, N-terminally tagged soluble SARAF luminal domain, SP-XFP-SARAFL-R (SARAF(Δ165-339) with signal peptide and … (human, UniProt Q96BY9 31-164))
T1 sequence: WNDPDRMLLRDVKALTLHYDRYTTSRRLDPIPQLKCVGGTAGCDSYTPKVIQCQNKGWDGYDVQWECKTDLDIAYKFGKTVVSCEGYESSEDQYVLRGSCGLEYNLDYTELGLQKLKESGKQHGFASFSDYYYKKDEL
Experiment: FRET or BRET

B1: C-terminally tagged soluble SARAF luminal domain, SP-SARAFL-XFP-R (domain or fragment, human)
chain: WNDPDRMLLRDVKALTLHYDRYTTSRRLDPIPQLKCVGGTAGCDSYTPKVIQCQNKGWDGYDVQWECKTDLDIAYKFGKTVVSCEGYESSEDQYVLRGSCGLEYNLDYTELGLQKLKESGKQHGFASFSDYYYKTGRPACKIPNDLKQKVMNHKDEL
FRET signal, fold over the pair with both fluorophores at the N-terminus: ~3 fold
